Here are results for 28 molecules from article PMC314469, “Protein Interaction Networks by Proteome Peptide Scanning” (PLoS Biology, 2004).

The target of experiment [1] is T1, amphyphisin SH3 (AMPH_HUMAN), P49418.
T1 chain: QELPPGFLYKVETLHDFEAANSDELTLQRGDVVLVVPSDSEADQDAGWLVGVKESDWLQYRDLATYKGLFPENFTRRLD
Description: SPOT array.

Experiment [2] addresses endophilin SH3 (SH3G2_HUMAN), Q99962. Nature of the experiment: SPOT array.

B1: O43184 749-763 (peptide)
chain: RSVRPSRPPRGFQP
As to B1, the values for the normalised SPOT signal, Boehringer light units (BLU); mean over the file's lines of this peptide in experiment [1] and in experiment [2] were 12400 and 13300, respectively.

B2: Q92619 87-100 (peptide)
chain: ATGTLKRPTSLSRH
On to B2, for which the results for the normalised SPOT signal, Boehringer light units (BLU); mean over the file's lines of this peptide in experiment [1] and in experiment [2] were 32.9 and 23.6, respectively.

B3: P13674 520-533 (peptide)
chain: RGQEFRRPSTLSEL
For B3, the normalised SPOT signal, Boehringer light units (BLU); mean over the file's lines of this peptide was found to be 38.7 in experiment [1] and 158 in experiment [2].

B4: Q13399 123-136 (peptide)
chain: RGAQLRRPRHSHLT
Consider B4, for which the normalised SPOT signal, Boehringer light units (BLU); mean over the file's lines of this peptide was 25.3 in experiment [1] and 53.2 in experiment [2].

B5: O95049 627-640 (peptide)
chain: REASFKRPVVILGP
Consider B5, for which the normalised SPOT signal, Boehringer light units (BLU); mean over the file's lines of this peptide in experiment [1] stood at 47.4; in experiment [2], 18.3.

B6: Q9UDY2 725-738 (peptide)
chain: REAGFKRPVVLFGP
In the case of B6, the normalised SPOT signal, Boehringer light units (BLU); mean over the file's lines of this peptide in experiment [1] amounted to 24.6; in experiment [2], 23.8.

B7: Q92797 568-581 (peptide)
chain: RDLIFKRPSRQFQY
Consider B7, for which the normalised SPOT signal, Boehringer light units (BLU); mean over the file's lines of this peptide in experiment [1] is 5070; in experiment [2], 190.

B8: Q12879 1300-1313 (peptide)
chain: RELDLSRPSRSISL
As to B8, the normalised SPOT signal, Boehringer light units (BLU); mean over the file's lines of this peptide in experiment [1] was determined as 3150; in experiment [2], 98.7.

B9: Q96LA8 29-42 (peptide)
chain: REAALERPRRTKRE
As for B9, the normalised SPOT signal, Boehringer light units (BLU); mean over the file's lines of this peptide amounted to 2500 in experiment [1] and 330 in experiment [2].

B10: P29597 1130-1143 (peptide)
chain: RGERLPRPDKSPSE
On to B10, for which the normalised SPOT signal, Boehringer light units (BLU); mean over the file's lines of this peptide in experiment [1] is 3.2; in experiment [2], 116.

B11: Q9H278 225-238 (peptide)
chain: RDAFLKRPISNKYM
For the molecule B11, the figures for the normalised SPOT signal, Boehringer light units (BLU); mean over the file's lines of this peptide in experiment [1] and in experiment [2] were 34.7 and 254, respectively.

B12: P08922 650-663 (peptide)
chain: RASSPKRPGPWSEP
With B12, the normalised SPOT signal, Boehringer light units (BLU); mean over the file's lines of this peptide was 48.7 in experiment [1] and 66.3 in experiment [2].

B13: P36776 15-28 (peptide)
chain: RSWVLRRPMLAAAG
Take B13: the normalised SPOT signal, Boehringer light units (BLU); mean over the file's lines of this peptide in experiment [1] came out at 19; in experiment [2], 412.

B14: Q9GZY5 40-53 (peptide)
chain: RFALFKRPKANGVK
For the molecule B14, the normalised SPOT signal, Boehringer light units (BLU); mean over the file's lines of this peptide in experiment [1] was found to be 19.2; in experiment [2] it was 13.5.

B15: Q9NPY2 259-273 (peptide)
chain: RSSFPVRPPTASTI
As for B15, the normalised SPOT signal, Boehringer light units (BLU); mean over the file's lines of this peptide was 167 in experiment [1] and 3140 in experiment [2].

B16: O15350 435-448 (peptide)
chain: ATPLPRRPQPRDLG
As to B16, the normalised SPOT signal, Boehringer light units (BLU); mean over the file's lines of this peptide came out at 132 in experiment [1] and 6070 in experiment [2].

B17: Q9HCU4 2874-2888 (peptide)
chain: RGGPPPRPPPRQSL
As for B17, the normalised SPOT signal, Boehringer light units (BLU); mean over the file's lines of this peptide in experiment [1] is 17900; in experiment [2], 17200.

B18: Q9NR48 1976-1990 (peptide)
chain: REKKPPRPPKKKYQ
Regarding B18, the normalised SPOT signal, Boehringer light units (BLU); mean over the file's lines of this peptide in experiment [1] was 56.2; in experiment [2], 6480.

B19: Q96RT6 725-739 (peptide)
chain: RGFLPYRPPRPAFF
On to B19, for which the normalised SPOT signal, Boehringer light units (BLU); mean over the file's lines of this peptide in experiment [1] worked out at 7280; in experiment [2] it was 13700.

B20: P17036 132-145 (peptide)
chain: REVSLKRPLGNSPG
In the case of B20, the normalised SPOT signal, Boehringer light units (BLU); mean over the file's lines of this peptide came to 39.7 in experiment [1] and 55.7 in experiment [2].

B21: Q96T37 35-48 (peptide)
chain: RGDDLRRPATMKGK
With B21, the normalised SPOT signal, Boehringer light units (BLU); mean over the file's lines of this peptide stood at 30 in experiment [1] and 144 in experiment [2].

B22: O43561 47-60 (peptide)
chain: RGIQFKRPHTVAPW
With B22, the normalised SPOT signal, Boehringer light units (BLU); mean over the file's lines of this peptide in experiment [1] is 35.2; in experiment [2], 28.6.

B23: Q9NXT9 123-136 (peptide)
chain: RAVDLRRPLLHELL
In the case of B23, the normalised SPOT signal, Boehringer light units (BLU); mean over the file's lines of this peptide in experiment [1] came to 114; in experiment [2], 67.7.

B24: Q9Y6K5 932-945 (peptide)
chain: RDFIISRPTKLKSL
B24: the normalised SPOT signal, Boehringer light units (BLU); mean over the file's lines of this peptide amounted to 108 in experiment [1] and 182 in experiment [2].

B25: Q14069 9-23 (peptide)
chain: RAWIPGKPPSPPRG
In the case of B25, the normalised SPOT signal, Boehringer light units (BLU); mean over the file's lines of this peptide in experiment [1] was 1950; in experiment [2], 4770.

B26: Q14152 1235-1248 (peptide)
chain: REDRFRRPRDEGGW
As for B26, the results for the normalised SPOT signal, Boehringer light units (BLU); mean over the file's lines of this peptide in experiment [1] and in experiment [2] were 46 and 116, respectively.

B27: P48634 419-433 (peptide)
chain: RGGPPSKPPAPEDE
Take B27: the normalised SPOT signal, Boehringer light units (BLU); mean over the file's lines of this peptide in experiment [1] amounted to 38.6; in experiment [2], 33.5.

B28: Q16360 129-142 (peptide)
chain: RGAQLRRPRHSHPT
Consider B28, for which the results for the normalised SPOT signal, Boehringer light units (BLU); mean over the file's lines of this peptide in experiment [1] and in experiment [2] were 53.3 and 40.1, respectively.
